Laboratory results taken from US6083712.

Biological target: biotin synthase (Escherichia coli) (UniProt P12996)

| Substance | pmol of biotin produced |
| --- | --- |
| flavodoxin (from UniProt P61949) | 800 pmol |
| ferredoxin(flavodoxin)-NADP+ reductase (from UniProt P28861) (enzyme) | 800 pmol |
